Assay [1] concerns the target T1, 인간 ROR2 (세포 표면 발현, CHO-human ROR2) (human, UniProt Q01974 34-943).
T1 construct: whole, on cells; negative control, transiently overexpressed on CHO cells
Briefly: flow cytometry, CHO-human ROR2 cells.

Assay [2] addresses T2, 마우스 ROR1 (세포 표면 발현, CHO-mouse ROR1) (mouse, UniProt Q9Z139 30-937).
T2 construct: whole, on cells; transiently overexpressed on CHO cells
Put plainly: flow cytometry, CHO-mouse ROR1 cells. On the technique in general: In flow cytometry, cells or beads pass a laser one at a time.

A further assay concerns the target T3, 인간 ROR1 (세포 표면 발현) (human, UniProt Q01973 30-937).
T3 construct: whole, on cells; endogenous on JeKo-1, Mino and other human cancer lines; overexpressed on CHO and MC38 cells; also called hROR1; CHO-human ROR1
Briefly: flow cytometry, JeKo-1 and Mino cells.

Assay [3] deals with T4, 인간 ROR1 항원 (ELISA 코팅: 실시예 1의 ROR1-Fc 또는 재조합 인간 ROR1-His) (human, UniProt Q01973 30-406).
T4 construct: extracellular domain; tag therefore open
Put plainly: ELISA, IgG on coated human ROR1 protein. (In general: In an ELISA, binding on a coated surface is turned into a signal by an enzyme label.)

Assay [4] deals with T5, 재조합 마우스 ROR1 단백질 (Acrobiosystems, RO1-M5221) (mouse, UniProt Q9Z139 30-406).
T5 construct: extracellular domain; bought protein; also called 마우스 ROR1 항원
Put plainly: ELISA, IgG on coated recombinant mouse ROR1.

Assay [5] addresses T6, 재조합 인간 ROR1-His (Sino Biological, 13968-H08H) (human, UniProt Q01973 30-403).
T6 construct: bought protein
Briefly: BLI (Octet), ROR1-His on the sensor, 1:1 fit. In general terms: Biolayer interferometry detects binding as a change in optical thickness at a sensor tip.

T1 sequence (Q01974 34-943): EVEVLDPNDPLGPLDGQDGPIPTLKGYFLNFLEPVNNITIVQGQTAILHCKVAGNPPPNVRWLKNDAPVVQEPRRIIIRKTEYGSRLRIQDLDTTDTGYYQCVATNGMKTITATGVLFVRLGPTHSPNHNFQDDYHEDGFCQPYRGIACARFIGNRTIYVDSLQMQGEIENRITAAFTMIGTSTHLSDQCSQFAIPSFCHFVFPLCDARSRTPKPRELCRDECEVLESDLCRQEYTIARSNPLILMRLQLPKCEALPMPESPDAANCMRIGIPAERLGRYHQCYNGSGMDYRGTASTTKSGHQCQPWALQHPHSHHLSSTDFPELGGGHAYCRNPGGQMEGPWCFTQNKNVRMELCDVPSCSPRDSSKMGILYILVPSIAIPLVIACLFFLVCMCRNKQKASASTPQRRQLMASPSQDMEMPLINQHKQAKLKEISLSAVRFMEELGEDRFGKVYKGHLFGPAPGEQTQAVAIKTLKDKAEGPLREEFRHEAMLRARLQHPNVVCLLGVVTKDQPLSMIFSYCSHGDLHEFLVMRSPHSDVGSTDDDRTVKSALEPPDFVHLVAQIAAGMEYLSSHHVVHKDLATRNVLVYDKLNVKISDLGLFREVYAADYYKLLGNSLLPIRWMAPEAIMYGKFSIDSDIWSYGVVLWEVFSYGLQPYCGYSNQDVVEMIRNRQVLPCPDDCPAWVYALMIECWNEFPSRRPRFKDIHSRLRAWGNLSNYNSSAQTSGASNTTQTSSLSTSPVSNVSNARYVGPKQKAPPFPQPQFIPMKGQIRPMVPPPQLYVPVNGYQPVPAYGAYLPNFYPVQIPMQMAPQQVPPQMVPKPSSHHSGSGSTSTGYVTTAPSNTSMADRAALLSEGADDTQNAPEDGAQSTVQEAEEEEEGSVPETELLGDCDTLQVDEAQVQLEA
T5 sequence (Q9Z139 30-406): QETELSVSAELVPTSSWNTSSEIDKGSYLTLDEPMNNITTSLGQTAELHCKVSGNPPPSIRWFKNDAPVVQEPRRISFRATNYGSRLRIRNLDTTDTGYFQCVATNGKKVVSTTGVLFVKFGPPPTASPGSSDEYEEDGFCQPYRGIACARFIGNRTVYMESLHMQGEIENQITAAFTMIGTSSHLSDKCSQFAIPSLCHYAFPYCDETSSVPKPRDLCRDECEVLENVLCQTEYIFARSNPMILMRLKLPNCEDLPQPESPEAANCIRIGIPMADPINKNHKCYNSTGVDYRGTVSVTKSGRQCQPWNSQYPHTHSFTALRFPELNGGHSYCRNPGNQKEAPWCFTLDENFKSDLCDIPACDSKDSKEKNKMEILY
T4 sequence (Q01973 30-406): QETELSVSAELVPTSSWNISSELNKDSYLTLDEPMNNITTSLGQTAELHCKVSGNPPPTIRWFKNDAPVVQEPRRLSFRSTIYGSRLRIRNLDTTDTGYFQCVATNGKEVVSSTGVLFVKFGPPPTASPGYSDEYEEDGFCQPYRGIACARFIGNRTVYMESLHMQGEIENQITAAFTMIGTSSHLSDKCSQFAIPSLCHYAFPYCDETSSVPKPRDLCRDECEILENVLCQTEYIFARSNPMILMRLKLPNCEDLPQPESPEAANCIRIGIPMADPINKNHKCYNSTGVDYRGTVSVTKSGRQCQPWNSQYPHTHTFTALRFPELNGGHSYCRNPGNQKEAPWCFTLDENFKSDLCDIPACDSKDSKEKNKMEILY
T2 sequence (Q9Z139 30-937): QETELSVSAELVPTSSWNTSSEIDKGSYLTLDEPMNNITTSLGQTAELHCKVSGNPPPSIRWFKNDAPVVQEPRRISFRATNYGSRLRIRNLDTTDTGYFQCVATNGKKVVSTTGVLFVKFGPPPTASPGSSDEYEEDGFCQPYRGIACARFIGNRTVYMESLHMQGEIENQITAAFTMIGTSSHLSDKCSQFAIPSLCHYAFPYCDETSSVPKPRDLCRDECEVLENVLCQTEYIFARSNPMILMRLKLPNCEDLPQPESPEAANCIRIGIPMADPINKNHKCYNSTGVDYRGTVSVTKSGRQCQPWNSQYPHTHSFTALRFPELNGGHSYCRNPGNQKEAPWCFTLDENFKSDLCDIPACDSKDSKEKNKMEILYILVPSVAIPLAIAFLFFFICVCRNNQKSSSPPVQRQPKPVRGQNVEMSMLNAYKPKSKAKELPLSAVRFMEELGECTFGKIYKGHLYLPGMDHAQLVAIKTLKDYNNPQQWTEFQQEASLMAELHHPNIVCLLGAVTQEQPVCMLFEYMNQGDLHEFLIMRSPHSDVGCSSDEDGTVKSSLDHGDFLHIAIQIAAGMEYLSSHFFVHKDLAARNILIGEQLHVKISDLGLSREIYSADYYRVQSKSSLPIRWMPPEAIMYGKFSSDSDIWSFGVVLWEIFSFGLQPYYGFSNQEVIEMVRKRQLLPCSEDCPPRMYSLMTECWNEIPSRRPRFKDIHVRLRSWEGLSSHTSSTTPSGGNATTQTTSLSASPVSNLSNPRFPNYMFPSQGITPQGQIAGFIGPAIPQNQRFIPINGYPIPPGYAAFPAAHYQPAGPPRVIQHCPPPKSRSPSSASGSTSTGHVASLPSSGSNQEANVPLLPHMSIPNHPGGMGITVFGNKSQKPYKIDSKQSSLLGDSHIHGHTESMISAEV
T6 sequence (Q01973 30-403 limits assumed): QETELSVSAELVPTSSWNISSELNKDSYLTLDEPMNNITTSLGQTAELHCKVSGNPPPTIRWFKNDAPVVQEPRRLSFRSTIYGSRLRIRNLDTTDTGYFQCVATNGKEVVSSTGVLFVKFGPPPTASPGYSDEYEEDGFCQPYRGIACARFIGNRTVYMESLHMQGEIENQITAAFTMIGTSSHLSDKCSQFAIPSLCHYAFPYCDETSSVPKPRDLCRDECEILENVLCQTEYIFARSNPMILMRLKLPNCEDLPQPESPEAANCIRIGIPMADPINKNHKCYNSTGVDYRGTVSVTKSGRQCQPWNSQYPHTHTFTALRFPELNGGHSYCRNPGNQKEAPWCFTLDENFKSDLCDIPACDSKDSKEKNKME
T3 sequence (Q01973 30-937): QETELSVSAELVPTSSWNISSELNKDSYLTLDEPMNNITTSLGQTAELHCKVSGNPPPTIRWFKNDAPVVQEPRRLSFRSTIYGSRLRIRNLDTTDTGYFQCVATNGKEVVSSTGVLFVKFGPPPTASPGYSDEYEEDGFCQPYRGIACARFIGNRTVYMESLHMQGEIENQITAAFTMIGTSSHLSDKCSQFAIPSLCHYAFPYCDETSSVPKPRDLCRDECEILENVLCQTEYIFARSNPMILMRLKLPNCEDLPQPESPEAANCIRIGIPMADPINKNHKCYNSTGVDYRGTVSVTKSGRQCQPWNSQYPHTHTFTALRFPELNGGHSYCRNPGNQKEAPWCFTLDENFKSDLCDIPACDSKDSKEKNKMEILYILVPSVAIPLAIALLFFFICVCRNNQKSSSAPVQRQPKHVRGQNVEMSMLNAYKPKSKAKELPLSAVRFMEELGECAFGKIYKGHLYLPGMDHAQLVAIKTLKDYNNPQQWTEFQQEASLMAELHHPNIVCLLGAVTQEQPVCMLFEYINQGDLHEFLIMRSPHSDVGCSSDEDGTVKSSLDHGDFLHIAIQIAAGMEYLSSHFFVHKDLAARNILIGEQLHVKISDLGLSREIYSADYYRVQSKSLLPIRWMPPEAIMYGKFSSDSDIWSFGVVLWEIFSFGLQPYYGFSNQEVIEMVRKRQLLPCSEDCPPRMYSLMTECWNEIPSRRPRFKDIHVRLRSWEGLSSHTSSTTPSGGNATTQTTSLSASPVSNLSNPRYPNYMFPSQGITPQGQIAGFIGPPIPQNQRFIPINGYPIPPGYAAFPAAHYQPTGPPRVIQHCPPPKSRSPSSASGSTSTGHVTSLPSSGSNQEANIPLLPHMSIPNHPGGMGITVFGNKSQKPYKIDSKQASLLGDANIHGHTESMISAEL

B1: A2F2 (antibody, human IgG1, lambda, V domains shown)
VH: EVQLLESGGGLVQPGGSLRLSCAASGFTFSDYYMSWVRQAPGKGLEWVSSISPDGSNTYYADSVKGRFTISRDNSKNTLYLQMNSLRAEDTAVYYCAKNLRAFDYWGQGTLVTVSS
VL: QSVLTQPPPASGTPGQRVTISCSGSSSNIGSNTVYWYQQLPGTAPKLLIYANSQRPSGVPDRFSGSKSGTSASLAISGLRSEDEADYYCGSWDYSLSGYVFGGGTKLTVLG
notes: full IgG, human IgG1 heavy and lambda light constant regions; expressed in CHO-S; also called 항-ROR1 IgG 항체 A2F2
Consider B1, for which the binding result is “no binding” in assay [1]; “binds” in assay [2]; “binds” in the assay with 인간 ROR1 (세포 표면 발현); “binds” in assay [3]; “binds” in assay [4]; “binds” in assay [5].

B2: DG6 (antibody, human IgG1, lambda, V domains shown)
VH: EVQLLESGGGLVQPGGSLRLSCAASGFTFSDYDMSWVRQAPGKGLEWVSVISPDGGSIYYADSVKGRFTISRDNSKNTLYLQMNSLRAEDTAVYYCARDVVECNMNPCSYDNAMDVWGQGTLVTVSS
VL: QSVLTQPPSASGTPGQRVTISCSGSSSNIGSNYVSWYQQLPGTAPKLLIYDDSHRPSGVPDRFSGSKSGTSASLAISGLRSEDEADYYCGAWDDSLSGYVFGGGTKLTVLG
notes: full IgG, human IgG1 heavy and lambda light constant regions; expressed in CHO-S; also called 항-ROR1 IgG 항체 DG6
Take B2: the binding result in assay [1] is reported as “no binding”; in assay [2], “binds”; with 인간 ROR1 (세포 표면 발현), “binds”; in assay [3] it was “binds”; in assay [4] it was “binds”; in assay [5], “binds”.

B3: CC9 (antibody, human IgG1, lambda, V domains shown)
VH: EVQLLESGGGLVQPGGSLRLSCAASGFTFSSYDMSWVRQAPGKGLEWVSGISHGSGNKYYADSVKGRFTISRDNSKNTLYLQMNSLRAEDTAVYYCAKRLSLRRRPSYYSDNAMDVWGQGTLVTVSS
VL: QSVLTQPPSASGTPGQRVTISCTGSSSNIGNNAVNWYQQLPGTAPKLLIYYDSNRPSGVPDRFSGSKSGTSASLAISGLRSEDEADYYCGAWDDSLSGYVFGGGTKLTVLG
notes: full IgG, human IgG1 heavy and lambda light constant regions; expressed in CHO-S; also called 항-ROR1 IgG 항체 CC9
Turning to B3, the binding result in assay [1] is given as “no binding”; in assay [2], “binds”; in the assay with 인간 ROR1 (세포 표면 발현), “binds”; in assay [3], “binds”; in assay [4] it was “binds”; in assay [5], “binds”.

B4: BA6 (antibody, human IgG1, lambda, V domains shown)
VH: EVQLLESGGGLVQPGGSLRLSCAASGFTFSNYDMSWVRQAPGKGLEWVSAIYHSGSSKYYADSVKGRFTISRDNSKNTLYLQMNSLRAEDTAVYYCARGGNGAWDTGFDYWGQGTLVTVSS
VL: QSVLTQPPSASGTPGQRVTISCSGSSSNIGSNDVSWYQQLPGTAPKLLIYYDNNRPSGVPDRFSGSKSGTSASLAISGLRSEDEADYYCGAWDDSLSGYVFGGGTKLTVLG
notes: full IgG, human IgG1 heavy and lambda light constant regions; expressed in CHO-S; also called 항-ROR1 IgG 항체 BA6
Take B4: the binding result was “no binding” in assay [1]; “binds” in assay [2]; “binds” with 인간 ROR1 (세포 표면 발현); “binds” in assay [3]; “binds” in assay [4]; “binds” in assay [5].

B5: C2E3 (antibody, human IgG1, lambda, V domains shown)
VH: EVQLLESGGGLVQPGGSLRLSCAASGFTFSNYAMSWVRQAPGKGLEWVSSISHNSGSTYYADSVKGRFTISRDNSKNTLYLQMNSLRAEDTAVYYCAKFISARKSLGRSYSNGMDVWGQGTLVTVSS
VL: QSVLTQPPSASGTPGQRVTISCTGSSSNIGSNDVTWYQQLPGTAPKLLIYADSKRPSGVPDRFSGSKSGTSASLAISGLRSEDEADYYCGTWDYSLSGYVFGGGTKLTVLG
notes: full IgG, human IgG1 heavy and lambda light constant regions; expressed in CHO-S; also called 항-ROR1 IgG 항체 C2E3; ROR1 단일클론항체(C2E3)
For B5, the binding result was “no binding” in assay [1], “binds” in assay [2] and “binds” in assay [4].

B6: D2B12 (antibody, human IgG1, lambda, V domains shown)
VH: EVQLLESGGGLVQPGGSLRLSCAASGFTFSNYDMSWVRQAPGKGLEWVSSISPSSGSSIYYADSVKGRFTISRDNSKNTLYLQMNSLRAEDTAVYYCAKAPGWCQAPSCYYDNAMDVWGQGTLVTVSS
VL: QSVLTQPPSASGTPGQRVTISCSGSSSNIGNNDVSWYQQLPGTAPKLLIYDDSQRPSGVPDRFSGSKSGTSASLAISGLRSEDEADYYCGAWDDSLSGYVFGGGTKLTVLG
notes: full IgG, human IgG1 heavy and lambda light constant regions; expressed in CHO-S; also called 항-ROR1 IgG 항체 D2B12
In the case of B6, the binding result in assay [1] is reported as “no binding”; in assay [2] it was “binds”; with 인간 ROR1 (세포 표면 발현), “binds”; in assay [3], “binds”; in assay [4], “binds”; in assay [5], “binds”.

B7: AB4 (antibody, human IgG1, lambda, V domains shown)
VH: EVQLLESGGGLVQPGGSLRLSCAASGFTFSSYDMSWVRQAPGKGLEWVSWISPDSGSIYYADSVKGRFTISRDNSKNTLYLQMNSLRAEDTAVYYCARPTGRFDYWGQGTLVTVSS
VL: QSVLTQPPSASGTPGQRVTISCSGSSSNIGNNNVNWYQQLPGTAPKLLIYYDNKRPSGVPDRFSGSKSGTSASLAISGLRSEDEADYYCGTWDASLSGYVFGGGTKLTVLG
notes: full IgG, human IgG1 heavy and lambda light constant regions; expressed in CHO-S; also called 항-ROR1 IgG 항체 AB4
In the case of B7, the values for the binding result in assay [1], in assay [2] and in assay [4] were “no binding”, “binds” and “binds”, respectively.

B8: A2F2 M1 (antibody, human IgG1, lambda, V domains shown)
VH: EVQLLESGGGLVQPGGSLRLSCAASGFTFSDYYMSWVRQAPGKGLEWVSSISPDASNTYYADSVKGRFTISRDNSKNTLYLQMNSLRAEDTAVYYCAKNLRAFDYWGQGTLVTVSS
VL: QSVLTQPPPASGTPGQRVTISCSGSSSNIGSNTVYWYQQLPGTAPKLLIYANSQRPSGVPDRFSGSKSGTSASLAISGLRSEDEADYYCGSWDYSLSGYVFGGGTKLTVLG
notes: full IgG, human IgG1 heavy and lambda light constant regions; expressed in CHO-S; also called 항-ROR1 IgG 항체 A2F2 M1
For the molecule B8, the binding result is on record as “no binding” in assay [1]; “binds” in assay [2]; “binds” with 인간 ROR1 (세포 표면 발현); “binds” in assay [3]; “binds” in assay [4]; “binds” in assay [5].

B9: BA6 M1 (antibody, human IgG1, lambda, V domains shown)
VH: EVQLLESGGGLVQPGGSLRLSCAASGFTFSNYDMSWVRQAPGKGLEWVSAIYHSGSSKYYADSVKGRFTISRDNSKNTLYLQMNSLRAEDTAVYYCARGGNAAWDTGFDYWGQGTLVTVSS
VL: QSVLTQPPSASGTPGQRVTISCSGSSSNIGSNDVSWYQQLPGTAPKLLIYYDNNRPSGVPDRFSGSKSGTSASLAISGLRSEDEADYYCGAWDDSLSGYVFGGGTKLTVLG
notes: full IgG, human IgG1 heavy and lambda light constant regions; expressed in CHO-S; also called 항-ROR1 IgG 항체 BA6 M1
As to B9, the binding result in assay [1] is listed as “no binding”; in assay [2], “binds”; in the assay with 인간 ROR1 (세포 표면 발현) it was “binds”; in assay [3] it was “binds”; in assay [4], “binds”; in assay [5], “binds”.

B10: A2F3 (antibody, human IgG1, lambda, V domains shown)
VH: EVQLLESGGGLVQPGGSLRLSCAASGFTFSSYDMSWVRQAPGKGLEWVSWISPGGGSKYYADSVKGRFTISRDNSKNTLYLQMNSLRAEDTAVYYCARVNGRFDYWGQGTLVTVSS
VL: QSVLTQPPSASGTPGQRVTISCSGSSSNIGNNNVSWYQQLPGTAPKLLIYADSHRPSGVPDRFSGSKSGTSASLAISGLRSEDEADYYCATWDYSLSGYVFGGGTKLTVLG
notes: full IgG, human IgG1 heavy and lambda light constant regions; expressed in CHO-S; also called 항-ROR1 IgG 항체 A2F3
With B10, the binding result was “no binding” in assay [1]; “binds” in assay [2]; “binds” in the assay with 인간 ROR1 (세포 표면 발현); “binds” in assay [3]; “binds” in assay [4]; “binds” in assay [5].

Values taken from KR20210028556A (dated 2021).
